{"source": "paper doi:10.1101/2020.09.30.318261", "about": "(bioRxiv, 2020)", "target": "full-length SARS-CoV-2 spike protein, wildtype, surface expressed (SARS-CoV-2, UniProt P0DTC2)", "assay": "flow cytometry on cells", "data": [{"binder": "human monoclonal antibody 47D11 (antibody, V domains shown) VH: QVQLQESGPGLVKPSETLSLTCSVSGGSISSHYWSWIRQPPGKGLEWIGYIYYSGSTNHNPSLKSRVTISVDTSKNQFSLKLSSVTAADTAVYYCARGVLLWFGEPIFEIWGQGTMVTVSS VL: EIVMTQSPATLSVSPGERATLSCRASQSVSSSLAWYQQKPGQAPRLLIYGASTRAPGIPARFSGSGSGTEFTLTISSLQSEDFAVYYCQQYNNWPLTFGGGTKVEI", "values": [{"measurement": "binding result", "value": "binds"}]}]}
